Test results: paper PMC6130949, “The rational design of affinity-attenuated OmCI for the purification of complement C5” (The Journal of Biological Chemistry, 2018)
Values joined by “and” are separate entries in the source; they are usually repeats but may differ in a detail not shown here. Identical values can stand only once.

Legend:
[1] = target: OmCI E141A/H164A (Ornithodoros moubata) (UniProt Q5YD59); test: SPR; multicycle kinetics, Biacore 8K; OmCI biotinylated on the N-terminal AVI tag and captured on an SA streptavidin chip (20-100 RU); C5 as analyte, 7-point 3-fold titration from 250 nM in HBS-EP, 30 ul/min, contact 240 s, dissociation 3600 s; regeneration with 0.1 M citric acid pH 2.0; single-site binding model
[2] = target: OmCI E141A (Ornithodoros moubata) (UniProt Q5YD59); test: as above
[3] = target: Wildtype OmCI (Ornithodoros moubata) (UniProt Q5YD59); test: as above
[4] = target: OmCI E141A/R47A (Ornithodoros moubata) (UniProt Q5YD59); test: as above
[5] = target: OmCI E141A/R47A/L140G (Ornithodoros moubata) (UniProt Q5YD59); test: SPR; single-cycle kinetics, Biacore 8K; OmCI amine coupled to a CM5 chip (~50 RU); C5 (CompTech) as analyte, 9-point 3-fold titration from 500 nM in HBS-EP, 40 ul/min, contact 230 s, dissociation 900 s; single-site binding model
[6] = target: OmCI E141A/R47A/H164A/L140G (Ornithodoros moubata) (UniProt Q5YD59); test: as above
[7] = target: OmCI D167A (Ornithodoros moubata) (UniProt Q5YD59); test: as above
[8] = target: OmCI E141A/H164A (Ornithodoros moubata) (UniProt Q5YD59); test: as above
[9] = target: OmCI R47A (Ornithodoros moubata) (UniProt Q5YD59); test: as above
[10] = target: OmCI F36W (Ornithodoros moubata) (UniProt Q5YD59); test: as above
[11] = target: OmCI L140G (Ornithodoros moubata) (UniProt Q5YD59); test: as above
[12] = target: OmCI E141A (Ornithodoros moubata) (UniProt Q5YD59); test: as above
[13] = target: OmCI H117A (Ornithodoros moubata) (UniProt Q5YD59); test: as above
[14] = target: OmCI M134G (Ornithodoros moubata) (UniProt Q5YD59); test: as above
[15] = target: OmCI H164A (Ornithodoros moubata) (UniProt Q5YD59); test: as above
[16] = target: OmCI E141A/L140G (Ornithodoros moubata) (UniProt Q5YD59); test: as above
[17] = target: OmCI E141A/R47A (Ornithodoros moubata) (UniProt Q5YD59); test: as above
[18] = target: Wildtype OmCI (Ornithodoros moubata) (UniProt Q5YD59); test: differential scanning calorimetry; C5 (CompTech) and OmCI mixed in 1:1.25 molar ratio, at least 6 h at 4 °C, PBS; heated 10-100 °C at 1 °C/min; n = 1
[19] = target: Complement component C5 from human serum (human (endogenous in human serum))
[20] = target: T1, Complement component C5 (UniProt P01031 19-673; P01031 678-1676); test: SPR; multicycle kinetics, Biacore 8K; biotinylated OmCI captured by its N-terminal AVI tag on an SA streptavidin chip; C5 as analyte, 7-point 3-fold titration from 250 nM in HBS-EP, 30 ul/min, contact 240 s, dissociation 3600 s; single-site binding model; values of the individual occasions (n=1 to n=4); details: both partners purified
T1 construct: complement C5 beta chain; complement C5 alpha chain; Commercial C5 from CompTech; source: bought: CompTech
T1 sequence (P01031 19-673, chain 1 of 2): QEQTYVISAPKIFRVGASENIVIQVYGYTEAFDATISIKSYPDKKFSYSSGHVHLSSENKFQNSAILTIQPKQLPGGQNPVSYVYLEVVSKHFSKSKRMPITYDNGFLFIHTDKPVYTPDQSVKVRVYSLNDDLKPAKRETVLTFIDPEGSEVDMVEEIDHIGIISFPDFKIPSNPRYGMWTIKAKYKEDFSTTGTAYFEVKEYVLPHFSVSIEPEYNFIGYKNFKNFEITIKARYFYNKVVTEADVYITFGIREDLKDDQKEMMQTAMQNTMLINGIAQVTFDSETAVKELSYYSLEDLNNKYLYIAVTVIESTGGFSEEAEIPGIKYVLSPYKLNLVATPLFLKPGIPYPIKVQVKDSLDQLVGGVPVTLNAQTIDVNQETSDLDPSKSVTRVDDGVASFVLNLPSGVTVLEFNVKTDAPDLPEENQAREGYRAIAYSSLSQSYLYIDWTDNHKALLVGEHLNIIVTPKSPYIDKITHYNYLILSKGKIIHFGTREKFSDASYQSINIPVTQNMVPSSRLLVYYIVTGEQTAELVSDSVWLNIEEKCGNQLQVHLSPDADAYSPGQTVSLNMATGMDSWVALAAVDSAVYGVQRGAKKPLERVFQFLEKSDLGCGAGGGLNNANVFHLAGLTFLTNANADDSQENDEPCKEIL
T1 sequence (P01031 678-1676, chain 2 of 2): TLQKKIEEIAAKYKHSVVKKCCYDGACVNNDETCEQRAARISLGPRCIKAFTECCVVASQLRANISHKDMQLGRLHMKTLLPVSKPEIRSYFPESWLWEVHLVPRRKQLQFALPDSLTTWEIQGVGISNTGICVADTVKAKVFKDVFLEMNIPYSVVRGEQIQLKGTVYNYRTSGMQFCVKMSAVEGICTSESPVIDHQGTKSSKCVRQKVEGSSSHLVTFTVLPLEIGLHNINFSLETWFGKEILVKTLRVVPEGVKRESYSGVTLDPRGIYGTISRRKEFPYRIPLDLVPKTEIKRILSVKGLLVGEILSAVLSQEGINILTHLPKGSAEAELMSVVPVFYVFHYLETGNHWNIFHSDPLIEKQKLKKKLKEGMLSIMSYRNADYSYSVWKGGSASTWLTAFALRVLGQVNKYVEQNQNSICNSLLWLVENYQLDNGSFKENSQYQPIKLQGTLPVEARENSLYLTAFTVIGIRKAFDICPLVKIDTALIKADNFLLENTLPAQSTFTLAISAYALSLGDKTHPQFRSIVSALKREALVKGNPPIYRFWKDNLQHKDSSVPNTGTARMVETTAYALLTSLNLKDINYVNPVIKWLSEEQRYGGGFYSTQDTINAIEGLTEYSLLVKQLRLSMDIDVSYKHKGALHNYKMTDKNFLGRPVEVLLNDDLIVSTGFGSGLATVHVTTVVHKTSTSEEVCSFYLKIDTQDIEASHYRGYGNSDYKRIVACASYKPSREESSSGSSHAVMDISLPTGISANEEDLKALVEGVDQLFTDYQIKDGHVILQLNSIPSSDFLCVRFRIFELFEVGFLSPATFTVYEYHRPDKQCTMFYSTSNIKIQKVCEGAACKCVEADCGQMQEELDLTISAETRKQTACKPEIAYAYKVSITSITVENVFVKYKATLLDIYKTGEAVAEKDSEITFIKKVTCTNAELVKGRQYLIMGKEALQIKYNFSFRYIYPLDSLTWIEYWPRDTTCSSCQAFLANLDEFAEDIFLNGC

**Q.** How did the Kd [1] turn out when “Complement component C5 (CompTech) (natural protein)” was run?
**A.** 4.09 nM

**Q.** And the koff [1]?
**A.** 0.00406 s⁻¹

**Q.** And the kon [1]?
**A.** 1.13e+06 M⁻¹ s⁻¹

**Q.** And the Kd [2]?
**A.** 0.709 nM

**Q.** And the koff [2]?
**A.** 0.000304 s⁻¹

**Q.** What about the kon [2] of the same molecule?
**A.** 481000 M⁻¹ s⁻¹

**Q.** And the Kd [3]?
**A.** < 0.1 nM

**Q.** And the koff [3]?
**A.** < 1e-05 s⁻¹

**Q.** And the kon [3]?
**A.** 588000 M⁻¹ s⁻¹

**Q.** What about the stoichiometry N [3] of the same molecule?
**A.** < 1

**Q.** What about the Kd [4] of the same molecule?
**A.** 13.1 nM

**Q.** What about the koff [4] of the same molecule?
**A.** 0.0318 s⁻¹

**Q.** And the kon [4]?
**A.** 3.01e+06 M⁻¹ s⁻¹

**Q.** And the approximate fold change in koff relative to WT OmCI [5]?
**A.** 1270 fold

**Q.** What about the approximate fold change in koff relative to WT OmCI [6] of the same molecule?
**A.** 5500 fold

**Q.** What about the approximate fold change in koff relative to WT OmCI [7] of the same molecule?
**A.** 2.4 fold

**Q.** And the approximate fold change in koff relative to WT OmCI [8]?
**A.** 197 fold

**Q.** And the approximate fold change in koff relative to WT OmCI [9]?
**A.** 4.1 fold

**Q.** What about the approximate fold change in koff relative to WT OmCI [10] of the same molecule?
**A.** 2.6 fold

**Q.** What about the approximate fold change in koff relative to WT OmCI [11] of the same molecule?
**A.** 1 fold

**Q.** What about the approximate fold change in koff relative to WT OmCI [12] of the same molecule?
**A.** 29.1 fold

**Q.** And the approximate fold change in koff relative to WT OmCI [13]?
**A.** 1.1 fold

**Q.** What about the approximate fold change in koff relative to WT OmCI [14] of the same molecule?
**A.** 229 fold

**Q.** What about the approximate fold change in koff relative to WT OmCI [15] of the same molecule?
**A.** 3.5 fold

**Q.** What about the approximate fold change in koff relative to WT OmCI [16] of the same molecule?
**A.** 31.3 fold

**Q.** What about the approximate fold change in koff relative to WT OmCI [17] of the same molecule?
**A.** 973 fold

**Q.** And the ΔTm of the main C5 unfolding peak on complexing [18]?
**A.** 8.6 °C

**Q.** How did the pIC50, alternative pathway (AP) complement activation ELISA (inhibition of MAC formation), OmCI titrated from 5 uM in human serum [19] turn out when “Wildtype OmCI (from UniProt Q5YD59 19-168) (natural protein)” was run?
**A.** < 9 −log M

**Q.** How did the pIC50, alternative pathway (AP) complement activation ELISA (inhibition of MAC formation), OmCI titrated from 5 uM in human serum [19] turn out when “OmCI E141A/R47A (from UniProt Q5YD59 19-168) (natural protein)” was run?
**A.** 8 −log M

**Q.** “OmCI R47A (from UniProt Q5YD59 19-168) (natural protein)” was tested. Which pIC50, alternative pathway (AP) complement activation ELISA (inhibition of MAC formation), OmCI titrated from 5 uM in human serum [19] did it give?
**A.** < 9 −log M

**Q.** Which pIC50, alternative pathway (AP) complement activation ELISA (inhibition of MAC formation), OmCI titrated from 5 uM in human serum [19] does the source give for “OmCI H164A (from UniProt Q5YD59 19-168) (natural protein)” here?
**A.** < 8.8 −log M

**Q.** “OmCI E141A (from UniProt Q5YD59 19-168) (natural protein)” was tested. Which pIC50, alternative pathway (AP) complement activation ELISA (inhibition of MAC formation), OmCI titrated from 5 uM in human serum [19] did it give?
**A.** < 8.9 −log M

**Q.** With “OmCI E141A/H164A (from UniProt Q5YD59 19-168) (natural protein)” as the molecule, how does the pIC50, alternative pathway (AP) complement activation ELISA (inhibition of MAC formation), OmCI titrated from 5 uM in human serum [19] read?
**A.** 8.5 −log M

**Q.** “Complement component C5 from human serum (natural protein)” was tested. Which Kd [3] did it give?
**A.** < 0.1 nM

B1: Wild-type OmCI with N-terminal 10xHis, TEV site and AVI tag (natural protein)
chain: DSESDCTGSEPVDAFQAFSEGKEAYVLVRSTDPKARDCLKGEPAGEKQDNTLPVMMTFKNGTDWASTDWTFTLDGAKVTATLGNLTQNREVVYDSQSHHCHVDKVEKEVPDYEMWMLDAGGLEVEVECCRQKLEELASGRNQMYPHLKDC
modifications: biotin on the N-terminal AVI tag (Bir-A)
notes: OmCI of Ornithodoros moubata, UniProt Q5YD59, without its signal peptide; No TEV cleavage is described; also called wt OmCI; OmCI WT; source: ExpiHEK 293, transfected, purified from supernatant (nickel-Sepharose Excel); not shown: AVI tag, N-terminal, kept
**Q.** For B1, which Kd [20] is on record?
**A.** < 0.1 nM

**Q.** And the koff [20]?
**A.** < 1e-05 s⁻¹

**Q.** And the kon [20]?
**A.** 384000 M⁻¹ s⁻¹ and 400000 M⁻¹ s⁻¹ and 1.14e+06 M⁻¹ s⁻¹ and 432000 M⁻¹ s⁻¹

B2: OmCI E141A/H164A with N-terminal 10xHis, TEV site and AVI tag (natural protein)
chain: DSESDCTGSEPVDAFQAFSEGKEAYVLVRSTDPKARDCLKGEPAGEKQDNTLPVMMTFKNGTDWASTDWTFTLDGAKVTATLGNLTQNREVVYDSQSHHCHVDKVEKEVPDYEMWMLDAGGLAVEVECCRQKLEELASGRNQMYPALKDC
modifications: biotin on the N-terminal AVI tag (Bir-A)
notes: OmCI of Ornithodoros moubata, UniProt Q5YD59, without its signal peptide; source: ExpiHEK 293, transfected, purified from supernatant (nickel-Sepharose Excel); not shown: AVI tag, N-terminal, kept
**Q.** B2 was tested. Which Kd [20] did it give?
**A.** 5.13 nM and 5.35 nM and 1.8 nM

**Q.** And the koff [20]?
**A.** 0.00438 s⁻¹ and 0.00489 s⁻¹ and 0.00292 s⁻¹

**Q.** And the kon [20]?
**A.** 855000 M⁻¹ s⁻¹ and 913000 M⁻¹ s⁻¹ and 1.62e+06 M⁻¹ s⁻¹

B3: OmCI E141A with N-terminal 10xHis, TEV site and AVI tag (natural protein)
chain: DSESDCTGSEPVDAFQAFSEGKEAYVLVRSTDPKARDCLKGEPAGEKQDNTLPVMMTFKNGTDWASTDWTFTLDGAKVTATLGNLTQNREVVYDSQSHHCHVDKVEKEVPDYEMWMLDAGGLAVEVECCRQKLEELASGRNQMYPHLKDC
modifications: biotin on the N-terminal AVI tag (Bir-A)
notes: OmCI of Ornithodoros moubata, UniProt Q5YD59, without its signal peptide; also called OmCI WT E141A; source: ExpiHEK 293, transfected, purified from supernatant (nickel-Sepharose Excel); not shown: AVI tag, N-terminal, kept
**Q.** With B3 as the molecule, how does the Kd [20] read?
**A.** 0.896 nM and 0.395 nM and 0.707 nM and 0.837 nM

**Q.** And the koff [20]?
**A.** 0.000307 s⁻¹ and 0.000328 s⁻¹ and 0.000273 s⁻¹

**Q.** What about the kon [20] of the same molecule?
**A.** 343000 M⁻¹ s⁻¹ and 830000 M⁻¹ s⁻¹ and 367000 M⁻¹ s⁻¹ and 386000 M⁻¹ s⁻¹

B4: OmCI E141A/R47A with N-terminal 10xHis, TEV site and AVI tag (natural protein)
chain: DSESDCTGSEPVDAFQAFSEGKEAYVLVASTDPKARDCLKGEPAGEKQDNTLPVMMTFKNGTDWASTDWTFTLDGAKVTATLGNLTQNREVVYDSQSHHCHVDKVEKEVPDYEMWMLDAGGLAVEVECCRQKLEELASGRNQMYPHLKDC
modifications: biotin on the N-terminal AVI tag (Bir-A)
notes: as for B2
**Q.** For B4, which Kd [20] is on record?
**A.** 17.6 nM and 7.26 nM and 9.55 nM and 18 nM
